Target: T1, TaB3-2A1-GST (Triticum aestivum, UniProt A0A3B6AVE6 1-220)
T1 sequence: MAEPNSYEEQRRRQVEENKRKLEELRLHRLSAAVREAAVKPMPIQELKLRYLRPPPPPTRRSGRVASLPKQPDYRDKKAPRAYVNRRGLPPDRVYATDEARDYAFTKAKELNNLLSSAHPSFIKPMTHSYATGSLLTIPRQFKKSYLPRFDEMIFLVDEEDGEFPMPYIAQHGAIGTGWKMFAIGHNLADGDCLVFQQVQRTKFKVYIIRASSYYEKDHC
Assay: EMSA

B1: CCRM1-1 probe (dsDNA)
DNA 1: CTTTTGTGTTGGCAAACTGCGCTTTTCCAACCGATTTTGTTCTTCTCGCGCTTTCTTCTTAGGCTAAACAAACCTCACCGTGCACGCAGCCATGGTCCTGAACCTTCA
DNA 2: TGAAGGTTCAGGACCATGGCTGCGTGCACGGTGAGGTTTGTTTAGCCTAAGAAGAAAGCGCGAGAAGAACAAAATCGGTTGGAAAAGCGCAGTTTGCCAACACAAAAG
binding result: binds

— paper PMC10502752
